The record followed here is patent US10925971B2, “Methods of treating PRLR positive breast cancer” (Regeneron Pharmaceuticals, Inc., priority 2016, dated 2021).

For test [1], the target named is T1, dimeric human PRLR (hPRLR.mFc; SEQ ID NO:402) (Homo sapiens, UniProt P16471).
T1 construct: dimeric (hPRLR.mFc)
Put plainly: Surface plasmon resonance (Biacore T200), antibody-capture format. It is filed as binding. Particulars: analyte hPRLR.mFc. In outline:
(§1)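 Antibodies (human IgG1 Fc) captured on an anti-human Fc sensor surface; soluble monomeric (.mmh) or dimeric (.mFc) PRLR injected as analyte. ka and kd obtained by fitting to a 1:1 binding model.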
A general note: SPR reads the build-up and loss of mass on a sensor chip optically.

For test [2], the target named is T2, monomeric human PRLR (hPRLR.mmh; SEQ ID NO:401) (Homo sapiens, UniProt P16471).
T2 construct: soluble monomeric (hPRLR.mmh); mmh (myc-myc-hexahistidine) (C)
T2 sequence (P16471 with tags, fused parts or gaps): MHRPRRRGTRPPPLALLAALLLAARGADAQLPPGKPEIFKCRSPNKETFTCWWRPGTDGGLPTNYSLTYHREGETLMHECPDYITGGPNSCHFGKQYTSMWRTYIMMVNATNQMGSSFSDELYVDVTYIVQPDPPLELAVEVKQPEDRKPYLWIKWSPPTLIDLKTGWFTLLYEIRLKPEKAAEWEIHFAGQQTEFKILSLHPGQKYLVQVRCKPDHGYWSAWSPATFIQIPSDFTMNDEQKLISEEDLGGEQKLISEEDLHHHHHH
The description is as above. It is filed as binding. Particulars: analyte hPRLR.mmh. An outline of the steps: as §1

Test [3] has as its system Macaca fascicularis PRLR (mfPRLR.mmh; SEQ ID NO:403). Described as above. It is filed as binding. Particulars: analyte mfPRLR.mmh. An outline of the steps: as §1
For test [4], the target named is T3, native PRLR expressing T47D cells (Homo sapiens, UniProt P16471).
T3 construct: a native PRLR expressing cell line (T47D); endogenous in cells; host or cells: T47D
T3 sequence (P16471 25-622): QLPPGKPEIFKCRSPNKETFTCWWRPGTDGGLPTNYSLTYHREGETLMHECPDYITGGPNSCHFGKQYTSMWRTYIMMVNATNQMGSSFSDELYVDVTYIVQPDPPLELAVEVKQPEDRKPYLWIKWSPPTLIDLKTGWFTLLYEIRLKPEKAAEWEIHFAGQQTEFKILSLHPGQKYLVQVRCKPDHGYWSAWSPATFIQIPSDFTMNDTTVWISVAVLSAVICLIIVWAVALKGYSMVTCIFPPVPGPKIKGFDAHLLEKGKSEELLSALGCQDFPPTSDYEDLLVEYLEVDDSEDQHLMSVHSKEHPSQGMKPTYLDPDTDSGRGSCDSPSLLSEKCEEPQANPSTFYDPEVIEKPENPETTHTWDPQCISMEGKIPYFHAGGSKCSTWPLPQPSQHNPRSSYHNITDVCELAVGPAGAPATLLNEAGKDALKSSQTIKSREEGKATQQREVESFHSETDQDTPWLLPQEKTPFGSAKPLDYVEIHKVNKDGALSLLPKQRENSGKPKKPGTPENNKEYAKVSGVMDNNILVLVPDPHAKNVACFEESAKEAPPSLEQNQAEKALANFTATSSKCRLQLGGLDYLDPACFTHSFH
Put plainly: FACS cell surface binding. In outline: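 Binding expressed as mean fluorescence fold change above isotype background, measured by FACS after 30 min on ice with 10 μg/ml antibody and PE-conjugated anti-human detection. T47D, which natively expresses PRLR, tested with engineered HEK293/hPRLR and non-expressing HEK293 cells.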

Test [5] concerns HEK293 parental cells. Put plainly: FACS cell surface binding. The arrangement: species or system human. An outline of the steps:
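Values are mean fluorescence intensity relative to an isotype control (background). Antibodies at 10 μg/ml were incubated on ice for 30 min with HEK293 lines stably overexpressing HA-tagged species PRLR or with parental cells. A PE-conjugated anti-human secondary was used for detection.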

Test [6] has as its target T4, human PRLR on HEK293/hPRLR cells (Homo sapiens, UniProt P16471).
T4 construct: HA; expressed in transfected cells; host or cells: HEK293
T4 sequence (P16471 25-622): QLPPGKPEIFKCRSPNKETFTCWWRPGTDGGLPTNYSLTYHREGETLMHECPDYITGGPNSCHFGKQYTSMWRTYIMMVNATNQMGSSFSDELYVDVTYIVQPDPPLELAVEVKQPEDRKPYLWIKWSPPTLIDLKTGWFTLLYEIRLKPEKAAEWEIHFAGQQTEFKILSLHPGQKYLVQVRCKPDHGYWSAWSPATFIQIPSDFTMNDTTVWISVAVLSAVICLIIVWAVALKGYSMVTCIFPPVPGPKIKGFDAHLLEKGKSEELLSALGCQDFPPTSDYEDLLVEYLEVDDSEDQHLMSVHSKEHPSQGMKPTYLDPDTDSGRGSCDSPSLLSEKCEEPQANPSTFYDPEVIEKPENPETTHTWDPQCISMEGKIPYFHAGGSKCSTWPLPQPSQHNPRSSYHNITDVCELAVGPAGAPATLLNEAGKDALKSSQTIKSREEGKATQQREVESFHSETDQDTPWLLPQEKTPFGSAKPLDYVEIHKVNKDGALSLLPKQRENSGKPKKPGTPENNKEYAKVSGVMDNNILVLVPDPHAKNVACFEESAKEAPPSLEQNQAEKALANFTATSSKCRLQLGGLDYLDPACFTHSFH
Put plainly: FACS cell surface binding. In outline:
(§2)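 Flow cytometry: 1×10^5 cells/sample; primary Ab 10 μg/ml, 30 min on ice; 2 washes; PE anti-human 2° 10 μg/ml, 30 min on ice. Cells were HEK293 stably expressing HA-tagged PRLR of the given species, or untransfected HEK293. Readout was MFI fold over isotype.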

For test [7], the target named is T5, mouse PRLR on HEK293/mPRLR cells (Mus musculus, UniProt Q08501).
T5 construct: HA; expressed in transfected cells; host or cells: HEK293
T5 sequence (Q08501 20-608): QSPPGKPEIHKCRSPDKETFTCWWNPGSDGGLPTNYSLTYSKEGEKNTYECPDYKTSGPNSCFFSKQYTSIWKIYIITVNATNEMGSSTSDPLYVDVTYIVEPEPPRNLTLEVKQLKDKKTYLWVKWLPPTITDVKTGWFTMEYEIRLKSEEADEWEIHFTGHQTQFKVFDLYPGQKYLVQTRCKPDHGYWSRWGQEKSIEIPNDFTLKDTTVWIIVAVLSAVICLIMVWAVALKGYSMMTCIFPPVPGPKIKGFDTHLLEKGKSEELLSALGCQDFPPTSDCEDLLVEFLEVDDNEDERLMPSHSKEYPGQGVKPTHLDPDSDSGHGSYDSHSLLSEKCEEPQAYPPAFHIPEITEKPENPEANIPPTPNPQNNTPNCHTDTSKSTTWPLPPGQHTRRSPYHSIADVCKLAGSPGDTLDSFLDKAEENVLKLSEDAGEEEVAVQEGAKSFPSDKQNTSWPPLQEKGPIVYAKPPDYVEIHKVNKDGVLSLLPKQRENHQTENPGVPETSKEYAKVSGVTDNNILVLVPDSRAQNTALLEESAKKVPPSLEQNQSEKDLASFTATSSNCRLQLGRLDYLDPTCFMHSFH
Description: FACS cell surface binding. In outline: as §2

For test [8], the target named is T6, monkey PRLR on HEK293/mfPRLR cells (Macaca fascicularis, UniProt A0A2K5WXK1).
T6 construct: HA; expressed in transfected cells; host or cells: HEK293
T6 sequence (A0A2K5WXK1 25-619): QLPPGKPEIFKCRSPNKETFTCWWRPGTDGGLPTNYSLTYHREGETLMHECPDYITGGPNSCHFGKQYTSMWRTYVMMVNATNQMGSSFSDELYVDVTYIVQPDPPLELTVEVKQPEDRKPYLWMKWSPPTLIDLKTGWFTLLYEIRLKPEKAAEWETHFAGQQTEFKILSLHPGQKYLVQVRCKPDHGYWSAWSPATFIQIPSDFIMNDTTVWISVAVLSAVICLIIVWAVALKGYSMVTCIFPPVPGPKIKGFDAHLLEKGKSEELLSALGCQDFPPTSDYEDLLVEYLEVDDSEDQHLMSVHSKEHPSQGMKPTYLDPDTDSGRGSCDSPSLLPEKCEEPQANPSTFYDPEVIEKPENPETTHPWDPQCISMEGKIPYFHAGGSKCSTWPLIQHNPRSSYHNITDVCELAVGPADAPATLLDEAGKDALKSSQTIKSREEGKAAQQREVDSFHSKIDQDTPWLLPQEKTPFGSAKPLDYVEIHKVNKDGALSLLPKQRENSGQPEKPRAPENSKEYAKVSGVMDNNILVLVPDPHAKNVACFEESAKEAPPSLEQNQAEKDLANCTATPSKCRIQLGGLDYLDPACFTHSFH
Description: FACS cell surface binding. An outline of the steps:
as §2

T1 sequence (P16471 with tags, fused parts or gaps): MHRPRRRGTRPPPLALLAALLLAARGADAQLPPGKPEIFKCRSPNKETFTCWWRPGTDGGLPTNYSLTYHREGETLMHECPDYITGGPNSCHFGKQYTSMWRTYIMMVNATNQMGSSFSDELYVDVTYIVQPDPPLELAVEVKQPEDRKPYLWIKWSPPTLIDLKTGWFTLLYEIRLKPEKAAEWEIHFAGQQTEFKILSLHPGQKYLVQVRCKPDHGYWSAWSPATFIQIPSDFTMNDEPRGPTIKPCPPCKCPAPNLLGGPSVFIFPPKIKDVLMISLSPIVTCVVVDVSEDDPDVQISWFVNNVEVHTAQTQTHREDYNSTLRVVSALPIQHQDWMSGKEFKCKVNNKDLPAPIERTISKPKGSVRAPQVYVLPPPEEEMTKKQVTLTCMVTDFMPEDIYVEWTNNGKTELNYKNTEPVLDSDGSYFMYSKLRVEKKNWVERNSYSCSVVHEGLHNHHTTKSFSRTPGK
Sequence of Macaca fascicularis PRLR (mfPRLR.mmh; SEQ ID NO:403) (as listed by the source): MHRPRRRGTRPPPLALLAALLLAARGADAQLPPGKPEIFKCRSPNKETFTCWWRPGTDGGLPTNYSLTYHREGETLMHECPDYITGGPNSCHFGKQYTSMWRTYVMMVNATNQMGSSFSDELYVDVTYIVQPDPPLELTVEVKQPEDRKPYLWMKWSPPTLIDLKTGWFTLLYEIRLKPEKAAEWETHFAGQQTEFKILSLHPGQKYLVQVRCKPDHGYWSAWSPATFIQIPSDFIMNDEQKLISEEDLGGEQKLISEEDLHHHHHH

B1: H1H6804P: fully human anti-PRLR antibody, human IgG1 Fc; HCVR/LCVR SEQ ID NOs 242/250 (antibody, V domains shown)
VH: QVTLKESGPVLVKPTQTLSLTCTVSGFSLSDAGMGVSWIRQPPGKALEWLAHIFSNDGKSYSTSLKSRLTISKDTSKRQVVLTMTNMDPVDTATYYCARIRTGTYSLYLDYWGQGTLVTVSS
VL: DIQMTQSPSSLSASVGDRVTITCRASQSINSYLNWYQQKPGKAPKLLLYFASSLQSGVPSRFSGSGSGTDFTLTISSLQPEDFASYYCQESYSTPWTFGQGTKVEIK
As for B1, the ka in test [1] (25° C.) is 451000 M/s; in test [1] (37° C.), 554000 M/s; in test [2] (25° C.), 453000 M/s; in test [2] (37° C.), 607000 M/s; in test [3] (25° C.), 331000 M/s; in test [3] (37° C.), 455000 M/s. Besides, the kd in test [1] (25° C.) worked out at 8.69e-05 s⁻¹; in test [1] (37° C.) it was 0.000205 s⁻¹; in test [2] (25° C.) it was 0.000634 s⁻¹; in test [2] (37° C.), 0.00385 s⁻¹; in test [3] (25° C.) it was 0.000657 s⁻¹; in test [3] (37° C.) it was 0.00426 s⁻¹. Besides, the “FACS Cell Binding” value in test [4] worked out at 34 Fold Above Background; in test [5] it was 1 Fold Above Background; in test [6] it was 1 Fold Above Background; in test [7], 1 Fold Above Background; in test [8], 29 Fold Above Background.

B2: H1H6803P: fully human anti-PRLR antibody, human IgG1 Fc; HCVR/LCVR SEQ ID NOs 226/234 (antibody, V domains shown)
VH: EVQLVESGGGVVRPGGSLRLSCAASGFKFDDYGMTWVRHVPGKGLEWVSGINWNGGRTGYTDSVKGRFTISRDNAKNSLYLQMNSLRAEDTALYHCAGARRDAFDIWGQGTMVTVSS
VL: DIQMTQSPSSLSASIGDRVTITCRASQNIIKYLNWYQQNAGKAPKLLIYTASSLQSGVPSRFSGSGSGTDFTLTISSLQPEDFATYYCQQSSSSPYTFGQGTKLEIK
In the case of B2, the ka in test [1] (25° C.) came out at 104000 M/s; in test [1] (37° C.) it was 134000 M/s; in test [2] (25° C.), 82400 M/s; in test [2] (37° C.), 129000 M/s; in test [3] (25° C.), 62100 M/s; in test [3] (37° C.), 87300 M/s. Also, the kd in test [1] (25° C.) turned out to be 6.29e-05 s⁻¹; in test [1] (37° C.), 6.2e-05 s⁻¹; in test [2] (25° C.) it was 0.000137 s⁻¹; in test [2] (37° C.), 0.000364 s⁻¹; in test [3] (25° C.) it was 0.000209 s⁻¹; in test [3] (37° C.), 0.000636 s⁻¹. Moreover, the “FACS Cell Binding” value in test [4] was 39 Fold Above Background; in test [5], 1 Fold Above Background; in test [6] it was 39 Fold Above Background; in test [7], 1 Fold Above Background; in test [8] it was 28 Fold Above Background.
